Measured values reported in patent US20260272979A1 (CHINEO MEDICAL TECHNOLOGY, published 2026).
Blank lines part the entries; values can stand above or below the molecule they belong to.

B2: Seq No. 2-RFc (PD-1 variant PD1_56# fused to rabbit IgG Fc) (Fc fusion)
chain: PGWFLDSPDRPWNPPTFSPALLVVTEGDNATFTCSFSNTSESFVLNWYRMSPSNQTDKLAAFPEDRSQPGQDCRFRVTQLPNGRDFHMSVVRARRNDSGTYLCGAISLSTPVWIKESLRAELRVTERRAEVPTAH
notes: Signal peptide 1-20 left out; also called variant 1; Mut1/56#; not shown: rabbit IgG Fc (RFc) of vector pcDNA3.4-RFc

Tests used:
[1] = biological target: wild-type human PD-1 (hPD-1) on cells (human); test: cell-based or functional assay
[2] = biological target: Seq No. 3-RFc (PD-1 variant PD1_56#-2 fused to rabbit IgG Fc) (human; rabbit) (UniProt Q15116); test: SPR Biacore T200
[3] = biological target: Seq No. 6-RFc (PD-1 variant PD1_56#-16 fused to rabbit IgG Fc) (human; rabbit) (UniProt Q15116); test: SPR Biacore T200
[4] = biological target: Seq No. 2-RFc (PD-1 variant PD1_56# fused to rabbit IgG Fc) (human; rabbit) (UniProt Q15116); test: SPR Biacore T200
[5] = biological target: Seq No. 7-RFc (PD-1 variant PD1_56#-108 fused to rabbit IgG Fc) (human; rabbit) (UniProt Q15116); test: SPR Biacore T200
[6] = biological target: Seq No. 4-RFc (PD-1 variant PD1_56#-3 fused to rabbit IgG Fc) (human; rabbit) (UniProt Q15116); test: SPR Biacore T200
[7] = biological target: Seq No. 1-RFc (wild-type PD-1 fused to rabbit IgG Fc) (human; rabbit) (UniProt Q15116); test: SPR Biacore T200
[8] = biological target: Seq No. 5-RFc (PD-1 variant PD1_56#-15 fused to rabbit IgG Fc) (human; rabbit) (UniProt Q15116); test: SPR Biacore T200
[9] = biological target: Seq No. 3-RFc (PD-1 variant PD1_56#-2 fused to rabbit IgG Fc) (human; rabbit) (UniProt Q15116); test: SPR Biacore T200; antibody stationary phase
[10] = biological target: Seq No. 6-RFc (PD-1 variant PD1_56#-16 fused to rabbit IgG Fc) (human; rabbit) (UniProt Q15116); test: SPR Biacore T200; antibody stationary phase
[11] = biological target: Seq No. 2-RFc (PD-1 variant PD1_56# fused to rabbit IgG Fc) (human; rabbit) (UniProt Q15116); test: SPR Biacore T200; antibody stationary phase
[12] = biological target: Seq No. 7-RFc (PD-1 variant PD1_56#-108 fused to rabbit IgG Fc) (human; rabbit) (UniProt Q15116); test: SPR Biacore T200; antibody stationary phase
[13] = biological target: Seq No. 4-RFc (PD-1 variant PD1_56#-3 fused to rabbit IgG Fc) (human; rabbit) (UniProt Q15116); test: SPR Biacore T200; antibody stationary phase
[14] = biological target: Seq No. 1-RFc (wild-type PD-1 fused to rabbit IgG Fc) (human; rabbit) (UniProt Q15116); test: SPR Biacore T200; antibody stationary phase
[15] = biological target: Seq No. 5-RFc (PD-1 variant PD1_56#-15 fused to rabbit IgG Fc) (human; rabbit) (UniProt Q15116); test: SPR Biacore T200; antibody stationary phase
[16] = biological target: B2; test: SPR Biacore T200
[17] = biological target: T1, PD-L1 fuse-expressed with an Fc derived from human IgG1 (human, UniProt Q9NZQ7 19-239); test: SPR Biacore T200; PD1-RFc mobile phase
T1 construct: Bought reagent; also called PD-L1-Fc; hPD-L1-Fc; not shown: Fc of human IgG1
T1 sequence (Q9NZQ7 19-239 limits assumed): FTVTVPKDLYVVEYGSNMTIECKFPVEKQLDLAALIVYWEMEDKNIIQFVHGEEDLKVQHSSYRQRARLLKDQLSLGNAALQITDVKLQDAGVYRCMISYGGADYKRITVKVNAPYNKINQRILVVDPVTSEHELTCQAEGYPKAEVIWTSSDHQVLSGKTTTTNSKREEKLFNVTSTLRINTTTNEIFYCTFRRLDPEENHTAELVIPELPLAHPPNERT

[18] = biological target: T2, PD-L2 fuse-expressed with an Fc derived from human IgG1 (human, UniProt Q9BQ51 20-219, limits assumed); test: SPR Biacore T200; PD1-RFc mobile phase
T2 construct: Bought reagent; also called hPD-L2-Fc; not shown: Fc of human IgG1
T2 sequence (looked up): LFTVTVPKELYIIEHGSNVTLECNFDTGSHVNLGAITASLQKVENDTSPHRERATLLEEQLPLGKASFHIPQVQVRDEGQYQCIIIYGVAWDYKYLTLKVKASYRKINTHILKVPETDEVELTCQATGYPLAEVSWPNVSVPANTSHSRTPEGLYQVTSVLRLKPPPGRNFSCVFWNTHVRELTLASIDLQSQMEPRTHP

[19] = biological target: T1, PD-L1 fuse-expressed with an Fc derived …; test: SPR Biacore T200
[20] = biological target: T2, PD-L2 fuse-expressed with an Fc derived …; test: SPR Biacore T200
[21] = biological target: T1, PD-L1 fuse-expressed with an Fc derived …; test: flow cytometry, human T cells
[22] = biological target: T2, PD-L2 fuse-expressed with an Fc derived …; test: flow cytometry, human T cells

IL-2 concentration (pg/ml) at 0.8 nM [1]: 432 pg/mL
IL-2 concentration (pg/ml) at 1.6 nM [1]: 440 pg/mL
IL-2 concentration (pg/ml) at 3.2 nM [1]: 440 pg/mL
IL-2 concentration (pg/ml) at 6.4 nM [1]: 56.1 pg/mL
IL-2 concentration (pg/ml) at 12.8 nM [1]: 36.9 pg/mL
IL-2 concentration (pg/ml) at 25.6 nM [1]: 47.7 pg/mL
IL-2 concentration (pg/ml) at 51.2 nM [1]: 80.5 pg/mL
IL-2 concentration (pg/ml) at 102.4 nM [1]: 126 pg/mL
Kd [2]: 1.78 nM
Kd [3]: 0.315 nM
Kd [4]: 0.085 nM
Kd [5]: 0.0492 nM
Kd [6]: 2.94 nM
Kd [7]: 0.0135 nM
Kd [8]: 0.567 nM
koff [9]: 0.00105 s⁻¹
kon [9]: 588000 M⁻¹ s⁻¹
koff [10]: 0.000836 s⁻¹
kon [10]: 2.66e+06 M⁻¹ s⁻¹
koff [11]: 0.000174 s⁻¹
kon [11]: 2.05e+06 M⁻¹ s⁻¹
koff [12]: 0.000109 s⁻¹
kon [12]: 2.21e+06 M⁻¹ s⁻¹
koff [13]: 0.00203 s⁻¹
kon [13]: 691000 M⁻¹ s⁻¹
koff [14]: 4.21e-05 s⁻¹
kon [14]: 3.12e+06 M⁻¹ s⁻¹
koff [15]: 0.0003 s⁻¹
kon [15]: 530000 M⁻¹ s⁻¹
Molecule: Tilelizumab (antibody)

koff [17]: 0.00153 s⁻¹
kon [17]: 2.32e+06 M⁻¹ s⁻¹
koff [18]: 0.00483 s⁻¹
kon [18]: 6.05e+06 M⁻¹ s⁻¹
Kd [19]: 0.657 nM
Kd [20]: 0.798 nM
B3: Seq No. 6-RFc (PD-1 variant PD1_56#-16 fused to rabbit IgG Fc) (Fc fusion)
chain: PGWFLDSPDRPWNPPTFSPALLVVTEGDNATFTCSFSNTSESFVLNWYRMSPSNQTDKLAAFPEDFFTVSQDCRFRVTQLPNGRDFHMSVVRARRNDSGTYLCGAISLSTPVWIKESLRAELRVTERRAEVPTAH
notes: Signal peptide 1-20 left out; several higher bands in non-reducing SDS-PAGE; also called variant 5; PD1 variant 5 (56#-16); not shown: rabbit IgG Fc (RFc) of vector pcDNA3.4-RFc

koff [17]: 0.000771 s⁻¹
kon [17]: 2.01e+06 M⁻¹ s⁻¹
koff [18]: 0.00356 s⁻¹
kon [18]: 1.06e+07 M⁻¹ s⁻¹
Kd [19]: 0.384 nM
Kd [20]: 0.336 nM
B5: Seq No. 7-RFc (PD-1 variant PD1_56#-108 fused to rabbit IgG Fc) (Fc fusion)
chain: PGWFLDSPDRPWNPPTFSPALLVVTEGDNATFTCSFSNTSESFVLNWYRMSPSNQTDKLAAFPEDRINRSQDCRFRVTQLPNGRDFHMSVVRARRNDSGTYLCGAISLSTPVWIKESLRAELRVTERRAEVPTAH
notes: Signal peptide 1-20 left out; also called variant 6; not shown: rabbit IgG Fc (RFc) of vector pcDNA3.4-RFc

koff [17]: 0.00266 s⁻¹
kon [17]: 67400 M⁻¹ s⁻¹
koff [18]: 0.0019 s⁻¹
kon [18]: 6420 M⁻¹ s⁻¹
Kd [19]: 39.6 nM
Kd [20]: 296 nM
B7: Seq No. 4-RFc (PD-1 variant PD1_56#-3 fused to rabbit IgG Fc) (Fc fusion)
chain: PGWFLDSPDRPWNPPTFSPALLVVTEGDNATFTCSFSNTSESFVLNWYRMSPSNQTDKLAAFPWMFCFPGQDCRFRVTQLPNGRDFHMSVVRARRNDSGTYLCGAISLSTPVWIKESLRAELRVTERRAEVPTAH
notes: Signal peptide 1-20 left out; several higher bands in non-reducing SDS-PAGE; also called variant 3; Mut3/56#-3; not shown: rabbit IgG Fc (RFc) of vector pcDNA3.4-RFc

binding result [21]: binds
binding result [22]: binds
B8: PD-1 variant PD1_56#-16 on cells (receptor)
chain: PGWFLDSPDRPWNPPTFSPALLVVTEGDNATFTCSFSNTSESFVLNWYRMSPSNQTDKLAAFPEDFFTVSQDCRFRVTQLPNGRDFHMSVVRARRNDSGTYLCGAISLSTPVWIKESLRAELRVTERRAEVPTAHPSPSPRPAGQFQTLVVGVVGGLLGSLVLLVWVLAVIRSKRSRLLHSDYMNMTPRRPGPTRKHYQPYAPPRDFAAYRS
notes: On 293T cells and human T cells, from pLV2-PD1-CD28; signal peptide 1-20 left out; also called Mut5

binding result [21]: binds
binding result [22]: binds
B9: PD-1 variant PD1_56#-108 on cells (receptor)
chain: PGWFLDSPDRPWNPPTFSPALLVVTEGDNATFTCSFSNTSESFVLNWYRMSPSNQTDKLAAFPEDRINRSQDCRFRVTQLPNGRDFHMSVVRARRNDSGTYLCGAISLSTPVWIKESLRAELRVTERRAEVPTAHPSPSPRPAGQFQTLVVGVVGGLLGSLVLLVWVLAVIRSKRSRLLHSDYMNMTPRRPGPTRKHYQPYAPPRDFAAYRS
notes: On 293T cells and human T cells, from pLV2-PD1-CD28; signal peptide 1-20 left out; also called Mut6

Continued, molecule first:

B1: Toripalimab (antibody, V domains shown)
VH: QGQLVQSGAEVKKPGASVKVSCKASGYTFTDYEMHWVRQAPIHGLEWIGVIESETGGTAYNQKFKGRVTITADKSTSTAYMELSSLRSEDTAVYYCAREGITTVATTYYWYFDVWGQGTTVTVSS
VL: DVVMTQSPLSLPVTLGQPASISCRSSQSIVHSNGNTYLEWYLQKPGQSPQLLIYKVSNRFSGVPDRFSGSGSGTDFTLKISRVEAEDVGVYYCFQGSHVPLTFGQGTKLEIKR
Kd [16]: 0.395 nM

Molecule: B2
koff [17]: 0.00129 s⁻¹
kon [17]: 2.82e+06 M⁻¹ s⁻¹
koff [18]: 0.00657 s⁻¹
kon [18]: 5.6e+06 M⁻¹ s⁻¹
Kd [19]: 0.457 nM
Kd [20]: 1.17 nM

B4: Seq No. 3-RFc (PD-1 variant PD1_56#-2 fused to rabbit IgG Fc) (Fc fusion)
chain: PGWFLDSPDRPWNPPTFSPALLVVTEGDNATFTCSFSNTSESFVLNWYRMSPSNQTDKLAAFPFLFNLPGQDCRFRVTQLPNGRDFHMSVVRARRNDSGTYLCGAISLSTPVWIKESLRAELRVTERRAEVPTAH
notes: Signal peptide 1-20 left out; several higher bands in non-reducing SDS-PAGE; also called variant 2; Mut2/56#-2; not shown: rabbit IgG Fc (RFc) of vector pcDNA3.4-RFc
koff [18]: 1.25e-05 s⁻¹
kon [18]: 4.22e+06 M⁻¹ s⁻¹
Kd [19]: 4.12 nM
Kd [20]: 0.00296 nM

B6: Seq No. 5-RFc (PD-1 variant PD1_56#-15 fused to rabbit IgG Fc) (Fc fusion)
chain: PGWFLDSPDRPWNPPTFSPALLVVTEGDNATFTCSFSNTSESFVLNWYRMSPSNQTDKLAAFPEDFRNCTQDCRFRVTQLPNGRDFHMSVVRARRNDSGTYLCGAISLSTPVWIKESLRAELRVTERRAEVPTAH
notes: Signal peptide 1-20 left out; also called variant 4; Mut4/56#-15; not shown: rabbit IgG Fc (RFc) of vector pcDNA3.4-RFc
koff [17]: 0.00343 s⁻¹
kon [17]: 1.52e+06 M⁻¹ s⁻¹
koff [18]: 0.0096 s⁻¹
kon [18]: 2.12e+06 M⁻¹ s⁻¹
Kd [19]: 2.25 nM
Kd [20]: 4.53 nM
